Several values for one entry are separate records, joined by “and”; a condition that tells them apart may be missing. Identical values can stand only once. Like-named read-outs stand apart in the source and are kept apart here.
What was measured:
[1] = molecular target: T1, human TIM-3 ECD with 6-His tag (hu TIM-3-His6) (human, UniProt Q8TDQ0 22-200); experiment: SPR (Biacore)
T1 construct: Novoprotein Cat# C356; the entry includes the His tag; also called hTIM3-His; human TIM3-His6

cyno TIM-3-His6 [2] = molecular target: T2, cyno TIM-3-His6 (cynomolgus monkey); experiment: SPR (Biacore)
T2 construct: Made in HEK293 cells; not shown: 6-His tag
T2 chain: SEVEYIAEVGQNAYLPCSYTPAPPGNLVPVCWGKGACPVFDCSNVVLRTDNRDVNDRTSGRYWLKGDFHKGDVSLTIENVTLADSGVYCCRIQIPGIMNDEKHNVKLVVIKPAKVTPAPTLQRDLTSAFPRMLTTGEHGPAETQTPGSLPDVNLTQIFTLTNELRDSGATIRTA

[3] = molecular target: T1, human TIM-3 ECD with 6-His tag (hu …); experiment: ELISA, antigen coated
cyno TIM-3-His6 [4] = molecular target: T2, cyno TIM-3-His6; experiment: ELISA, antigen coated
cyno TIM-3-muFc = molecular target: T3, cyno TIM-3-muFc (cynomolgus monkey); experiment: ELISA, antigen coated
T3 construct: Made in HEK293 cells; also called cyno TIM3-mFc; not shown: murine Fc
T3 chain: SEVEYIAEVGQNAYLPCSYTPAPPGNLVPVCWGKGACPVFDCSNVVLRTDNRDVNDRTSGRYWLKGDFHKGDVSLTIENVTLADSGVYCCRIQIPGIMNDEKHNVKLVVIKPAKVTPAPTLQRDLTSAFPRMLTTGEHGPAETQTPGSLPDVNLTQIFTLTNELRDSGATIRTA

[5] = molecular target: T4, human TIM-3 on huTIM-3-CHO-S cells (human, UniProt Q8TDQ0 22-202); experiment: cell-based or functional assay
[6] = molecular target: T4, human TIM-3 on huTIM-3-CHO-S cells; experiment: FACS on CHO-S-hTIM-3 cells
[7] = molecular target: T4, human TIM-3 on huTIM-3-CHO-S cells; experiment: flow cytometry on CHO-S-hTIM3 cells
[8] = molecular target: T5, cyno TIM-3 on cynoTIM-3-Expi293F cells (cynomolgus monkey); experiment: flow cytometry on 293F-cynoTIM-3 cells
T5 construct: Membrane-anchored cyno TIM-3 ECD (XP_005558438) transiently expressed on Expi293F cells; not shown: membrane anchor of the expression vector, not described
T5 chain: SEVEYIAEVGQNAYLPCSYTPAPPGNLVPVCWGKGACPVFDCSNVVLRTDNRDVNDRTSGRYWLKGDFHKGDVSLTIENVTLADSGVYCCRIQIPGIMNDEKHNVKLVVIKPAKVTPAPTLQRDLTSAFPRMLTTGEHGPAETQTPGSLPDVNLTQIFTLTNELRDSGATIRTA

[9] = molecular target: T1, human TIM-3 ECD with 6-His tag (hu …); experiment: SPR, antibody captured, TIM-3 as analyte
cyno TIM-3-His6 [10] = molecular target: T2, cyno TIM-3-His6; experiment: SPR, antibody captured, TIM-3 as analyte
[11] = molecular target: T1, human TIM-3 ECD with 6-His tag (hu …); experiment: SPR (Biacore), relative to 3903E11 (VH1.0, VL1.0)
[12] = molecular target: T6, human TIM-3 on primary human blood cells (CD14+ monocytes in whole blood; PBMCs) (human, UniProt Q8TDQ0 22-301); experiment: target occupancy on CD14+ monocytes in human whole blood, flow cytometry; free TIM-3 detected with competing anti-TIM-3(2E2)-APC
T6 construct: whole, on cells; Endogenous receptor on donor cells; also called TIM-3 on CD14+ monocytes

[13] = molecular target: T6, human TIM-3 on primary human blood …; experiment: flow cytometry on fresh human whole blood, CD14+ monocytes; unoccupied TIM-3 detected with the competing anti-TIM-3 (2E2)-APC; donor KP46233
[14] = molecular target: T6, human TIM-3 on primary human blood …; experiment: flow cytometry on fresh human whole blood, CD14+ monocytes; unoccupied TIM-3 detected with the competing anti-TIM-3 (2E2)-APC; donors KP46231, KP46315, KP46318 (not separated)
[15] = molecular target: T7, wild-type TIM-3 (hu TIM-3), HEK-expressed (human, UniProt Q8TDQ0 22-202, limits assumed); experiment: SPR
T7 construct: Soluble protein of the mutagenesis study

[16] = molecular target: T7, wild-type TIM-3 (hu TIM-3), …; experiment: SPR; remark: listed apart in the source
FcRn = FcRn (UniProt P55899 24-297; P61769 21-119, limits assumed); experiment: BLI (Octet), steady state
FCγRI (CD64) [17] = molecular target: T8, FCγRI (CD64) (UniProt P12314 16-288); experiment: BLI (Octet), antibody on FAB2G tips
T8 construct: Bought

FCγRIIa (CD32a)_H131 [18] = molecular target: T9, FCγRIIa (CD32a)_H131 (UniProt P12318 36-218, limits assumed); experiment: BLI (Octet), antibody on FAB2G tips
T9 construct: Bought
T9 sequence (looked up): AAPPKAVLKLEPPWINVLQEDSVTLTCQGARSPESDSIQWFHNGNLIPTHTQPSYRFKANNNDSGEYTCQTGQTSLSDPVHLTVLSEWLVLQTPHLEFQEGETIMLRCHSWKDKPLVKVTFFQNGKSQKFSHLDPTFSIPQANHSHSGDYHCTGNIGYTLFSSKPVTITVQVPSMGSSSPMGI

FCγRIIIa (CD16a)_V158 [19] = molecular target: T10, FCγRIIIa (CD16a)_V158 (UniProt P08637 17-208); experiment: BLI (Octet), antibody on FAB2G tips
T10 construct: Bought

[20] = molecular target: T11, human TIM-3 ECD fused to human IgG1 Fc domain (huTIM-3-Fc) (human, UniProt Q8TDQ0 22-202); experiment: competition ELISA: huTIM-3-Fc-biotin (0.5 µg/ml) binding to coated galectin-9
T11 construct: extracellular domain; Bought; Biotinylated (Sulfo-NHS-LC-Biotin) in the galectin-9 ELISAs; also called Human-TIM3-biotin; huTIM-3-Fc-biotin; not shown: human IgG1 Fc domain

[21] = molecular target: T11, human TIM-3 ECD fused to human IgG1 Fc …; experiment: ELISA: plate-bound rhTIM-3-Fc pre-incubated with antibody, His-tagged CEACAM1 detected
[22] = molecular target: T1, human TIM-3 ECD with 6-His tag (hu …); experiment: ELISA, antigen coated; remark: listed apart in the source
cyno TIM-3-His6 [23] = molecular target: T2, cyno TIM-3-His6; experiment: ELISA, antigen coated
[24] = molecular target: T12, marmoset TIM-3 ECD with 6-His tag (marmoset TIM-3-His6) (marmoset); experiment: ELISA, antigen coated
T12 construct: Novoprotein Cat# CM64; the entry includes the His tag
T12 chain: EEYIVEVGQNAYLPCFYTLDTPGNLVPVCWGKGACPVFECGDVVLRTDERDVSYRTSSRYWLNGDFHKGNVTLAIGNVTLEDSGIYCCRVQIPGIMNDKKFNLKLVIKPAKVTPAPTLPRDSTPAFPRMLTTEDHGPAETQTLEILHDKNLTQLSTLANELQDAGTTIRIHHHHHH

FCγRIIa (CD32a)_H131 [25] = molecular target: T9, FCγRIIa (CD32a)_H131; experiment: BLI (Octet), steady state
FCγRIIIa (CD16a)_V158 [26] = molecular target: T10, FCγRIIIa (CD16a)_V158; experiment: BLI (Octet), steady state
[27] = molecular target: T4, human TIM-3 on huTIM-3-CHO-S cells; experiment: flow cytometry on CHO-S-hTIM-3 cells
[28] = molecular target: T1, human TIM-3 ECD with 6-His tag (hu …); experiment: SPR, antibody captured, TIM-3 as analyte; remark: listed apart in the source
cyno TIM-3-His6 [29] = molecular target: T2, cyno TIM-3-His6; experiment: SPR, antibody captured, TIM-3 as analyte
[30] = molecular target: T12, marmoset TIM-3 ECD with 6-His tag …; experiment: SPR, antibody captured, TIM-3 as analyte
FCγRI (CD64) [31] = molecular target: T8, FCγRI (CD64); experiment: BLI (Octet), antibody on FAB2G tips, kinetic fit
[32] = molecular target: T11, human TIM-3 ECD fused to human IgG1 Fc …; experiment: competition ELISA: huTIM-3-Fc-biotin (1 µg/ml) binding to coated galectin-9

B1: Parental Antibody 3903E11 (VL1.0, VH1.0) (antibody, human IgG1, lambda)
heavy: not shown
light: SYELTQPRSVSGSPGQSVTISCTGTSSDVGGYNYVSWYQQHPGKAPKLMIFDVSKRPSGVPDRFSGSKSGNTASLTISGLQAEDEADYYCSSYADSVVFGGGTKVTVLGQPKAAPSVTLFPPSSEELQANKATLVCLISDFYPGAVTVAWKADSSPVKAGVETTTPSKQSNNKYAASSYLSLTPEQWKSHKSYSCQVTHEGSTVEKTVAPTECS
notes: Human IgG1 (IgG1m3), lambda light chain; also called 3903E11 (VH1.0, VL1.0)
Kd [1]: 3.5 nM | Kd (cyno TIM-3-His6 [2]): 6.9 nM | EC50 [3]: 0.01 nM | EC50 (cyno TIM-3-His6 [4]): 0.01 nM | EC50 (cyno TIM-3-muFc): 0.01 nM | ADCC (51Cr release), Donor 1, EC50 [5]: 0.24 nM | ADCC (51Cr release), Donor 2, EC50 [5]: 0.11 nM | MFI at 0.1 µg/ml [6]: 137 MFI | MFI at 1 µg/ml [6]: 1390 MFI | MFI at 10 µg/ml [6]: 1490 MFI | EC50 [7]: 0.9 nM | EC50 [8]: 2 nM | Kd [9]: 3.8 nM | Kd (cyno TIM-3-His6 [10]): 12 nM | Human TIM3 KD Ratio to Parent [11]: 1

B2: anti-TIM-3 (A16-019-1) (antibody)
heavy: not shown
light: QSALTQPRSVSGSPGQSVTISCTGTSSDVGGYNYVSWYQQHPGKAPKLMIYDVSKRPSGVPDRFSGSKSGNTASLTISGLQAEDEADYYCSSYADSVVFGGGTKVTVLGQPKAAPSVTLFPPSSEELQANKATLVCLISDFYPGAVTVAWKADSSPVKAGVETTTPSKQSNNKYAASSYLSLTPEQWKSHKSYSCQVTHEGSTVEKTVAPTECS
notes: Said to be identical to M6903 but produced in Expi293F, not CHOK1SV, cells
EC50 [12]: 0.111 µg/mL | EC50 (read off the curve) [13]: ~0.04 µg/mL | EC50 (read off the curve) [14]: ~0.07 µg/mL

B3: anti-TIM-3-3903E11(VL1.3,VH1.2)-IgG2h(FN-AQ,322A)-delK (antibody)
heavy: not shown
light: QSALTQPRSVSGSPGQSVTISCTGTSSDVGGYNYVSWYQQHPGKAPKLMIYDVSKRPSGVPDRFSGSKSGNTASLTISGLQAEDEADYYCSSYADSVVFGGGTKVTVLGQPKAAPSVTLFPPSSEELQANKATLVCLISDFYPGAVTVAWKADSSPVKAGVETTTPSKQSNNKYAASSYLSLTPEQWKSHKSYSCQVTHEGSTVEKTVAPTECS
notes: Effector-negative engineered IgG2 with IgG1 hinge (C220S), F296A, N297Q, K322A, C-terminal Lys deleted; lambda light chain; also called M6903; copies: 2 + 2
Kd [15]: 6.2 nM | Kd [16]: 5.7 nM | Kd (FcRn): 850 nM | binding result (FCγRI (CD64) [17]): no binding (tested: 100 nM to 1.56 nM) | binding result (FCγRIIa (CD32a)_H131 [18]): no binding (tested: 4000 nM to 62.5 nM) | binding result (FCγRIIIa (CD16a)_V158 [19]): no binding (tested: 4000 nM to 62.5 nM) | IC50 [20]: 7.46 nM | IC50 [21]: 0.353 nM and 0.053 µg/mL

B4: 3903E11 (VL1.3,VH1.2) IgG1 (antibody)
heavy: not shown
light: QSALTQPRSVSGSPGQSVTISCTGTSSDVGGYNYVSWYQQHPGKAPKLMIYDVSKRPSGVPDRFSGSKSGNTASLTISGLQAEDEADYYCSSYADSVVFGGGTKVTVLGQPKAAPSVTLFPPSSEELQANKATLVCLISDFYPGAVTVAWKADSSPVKAGVETTTPSKQSNNKYAASSYLSLTPEQWKSHKSYSCQVTHEGSTVEKTVAPTECS
notes: also called 3903E11 (VH1.2, VL1.3); anti-TIM3-3903E11(VL1.3, VH1.2)-IgG1; copies: 2 + 2
Kd [1]: 1.6 nM | Kd (cyno TIM-3-His6 [2]): 5.3 nM | EC50 [22]: 0.01 nM | EC50 (cyno TIM-3-His6 [23]): 0.02 nM | EC50 [24]: 0.01 nM | Kd (FCγRIIa (CD32a)_H131 [25]): 630 nM | Kd (FCγRIIIa (CD16a)_V158 [26]): 100 nM | Kd (FcRn): 805 nM | MFI at 0.1 µg/ml [6]: 140 MFI | MFI at 1 µg/ml [6]: 1310 MFI | MFI at 10 µg/ml [6]: 1910 MFI | EC50 [27]: 2.6 nM | Kd [28]: 2.4 nM | Kd (cyno TIM-3-His6 [29]): 14 nM | Kd [30]: 11 nM | Kd (FCγRI (CD64) [31]): 1.7 nM | IC50 [32]: 2.4 nM

From patent US20220081480A1 (Merck KGaA, published 2022)
